Assay results published in patent US20170137511A1 (CALYPSO BIOTECH, published 2017).

Target: recombinant human IL-15 (Prospec cat no. CYT230) (human, UniProt P40933 49-162)
Experiment: ELISA, plate-bound human IL-15; printed as BC50 (half-maximal binding concentration)
Experimental: Maxisorp plates were coated with recombinant human IL-15 (Prospec cat no. CYT230) or Rhesus macaque IL-15 (MyBiosource cat. no. MBS948894) at 100 ng/well in carbonate coating buffer for 2 hours at 37° C. Since published sequences of Rhesus macaque and Cynomolgus monkey IL-15 are identical, such recombinant IL-15 protein was referred to as Macaque Monkey IL-15. Tested human IL-15 recombinant protein has a sequence identical to that provided in SEQ ID NO: 1 but with an additional methionine at the N-terminal position as usually done for expressing recombinant proteins in E. Coli. Tested recombinant Macaque Monkey IL-15 was produced in yeast and has a sequence identical to that provided in SEQ ID NO: 4 but with an additional N-terminal His tag.
The plate was then blocked with 2% normal goat serum for 30 min at 37° C. and washed 6 times with PBS-Tween (0.05% Tween-20 in PBS, v/v). Test antibodies were added to the plate in triplicate at various dilutions in PBS-Tween and the plate was incubated with gentle rocking at room temperature for 2 hours. The plate was then washed 6 times with PBS-Tween and an appropriate dilution of goat anti-human IgG antibody (Millipore cat. no. AP309P) conjugated to horseradish peroxidase (HRP) was added to the plate and left rocking at room temperature for 1 hour. The plate was then washed 6 times with PBS-Tween and incubated with TMB substrate. The reaction was stopped by the addition of 1M H₂SO₄ and read at 450 nm. Dose response curves of absorbance versus concentration were plotted and analyzed to determine half-maximal binding concentrations (BC₅₀) using the Graphpad Prism software. BC₅₀ values expressed as molarity were extrapolated from concentration in ng/ml using a 150 kDa molecular weight value for all antibodies.

Chain of recombinant human IL-15 (Prospec cat no. CYT230) (P40933 other isoform, or with tags, fused parts or gaps): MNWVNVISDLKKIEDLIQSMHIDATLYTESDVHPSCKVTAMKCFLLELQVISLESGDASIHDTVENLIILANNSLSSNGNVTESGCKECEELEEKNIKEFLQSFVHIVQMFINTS

Binder	EC50 [nM]
huB-E29-30 (antibody, human IgG1, kappa, V domains shown, Humanized B-E29 variant; human IgG1 (G1m3) / kappa (Km3), produced in CHO cells; also called huVH20/huVL1) VH: EVRLMASGGGLVQPGGSLRLSCAASEFTFSNYAMSWVRQAPGKGLEWVATISRGGDYTYYPDSVKGRFTISRDNSKNTLYLQMNSLRAEDTAVYYCARRVSFITGGYAMDYWGQGTLVTVSS VL: DVVMTQSPLSLPVTLGQPASISCRSSQSIVDITGNTYLEWYQQRPGQSPRLLIYKVFNRFSGVPDRFSGSGSGTDFTLKISRVEAEDVGVYYCFQDSFVPYTFGQGTKLEIKR	5.87
huB-E29-19 (antibody, human IgG1, kappa, V domains shown, Humanized B-E29 variant; human IgG1 (G1m3) / kappa (Km3), produced in CHO cells; also called huVH1/huVL5) VH: EVRLMASGGGLVQPGGSLRLSCAASEFTFSNYAMSWVRQAPGKGLEWVATISRGGDYTYYPDSVKGRFTISRDNSKNTLYLQMNSLRAEDTAVYYCARRVSMITGGWAMDYWGQGTLVTVSS VL: DVVMTQSPLSLPVTLGQPASISCRSSQSIVDITGNTYLEWYQQRPGQSPRLLIYKVFNRFSGVPDRFSGSGSGTDFTLKISRVEAEDVGVYYCFQDTFVPYTFGQGTKLEIKR	2.21
huB-E29-8 (antibody, human IgG1, kappa, V domains shown, Humanized B-E29 variant; human IgG1 (G1m3) / kappa (Km3), produced in CHO cells; also called huVH6/huVL1) VH: EVRLMASGGGLVQPGGSLRLSCAASEFTFSNYAMSWVRQAPGKGLEWVATISRGGDYTYYPDTVKGRFTISRDNSKNTLYLQMNSLRAEDTAVYYCARRVSIITGGWAMDYWGQGTLVTVSS VL: DVVMTQSPLSLPVTLGQPASISCRSSQSIVDITGNTYLEWYQQRPGQSPRLLIYKVFNRFSGVPDRFSGSGSGTDFTLKISRVEAEDVGVYYCFQDSFVPYTFGQGTKLEIKR	1.79
huB-E29-9 (antibody, human IgG1, kappa, V domains shown, Humanized B-E29 variant; human IgG1 (G1m3) / kappa (Km3), produced in CHO cells; also called huVH7/huVL1) VH: EVRLMASGGGLVQPGGSLRLSCAASEFTFSNYAMSWVRQAPGKGLEWVATISRGGDYTYYPDTVKGRFTISRDNSKNTLYLQMNSLRAEDTAVYYCARRVSAITGGWAMDYWGQGTLVTVSS VL: DVVMTQSPLSLPVTLGQPASISCRSSQSIVDITGNTYLEWYQQRPGQSPRLLIYKVFNRFSGVPDRFSGSGSGTDFTLKISRVEAEDVGVYYCFQDSFVPYTFGQGTKLEIKR	1.99
huB-E29-13 (antibody, human IgG1, kappa, V domains shown, Humanized B-E29 variant; human IgG1 (G1m3) / kappa (Km3), produced in CHO cells; also called huVH11/huVL1) VH: EVRLMASGGGLVQPGGSLRLSCAASEFTFSNYAMSWVRQAPGKGLEWVATISRGGDYTYYPDSVKGRFTISRDNSKNTLYLQMNSLRAEDTAVYYCARRVSMITGGWALDYWGQGTLVTVSS VL: DVVMTQSPLSLPVTLGQPASISCRSSQSIVDITGNTYLEWYQQRPGQSPRLLIYKVFNRFSGVPDRFSGSGSGTDFTLKISRVEAEDVGVYYCFQDSFVPYTFGQGTKLEIKR	3.17
huB-E29-31 (antibody, human IgG1, kappa, V domains shown, Humanized B-E29 variant; human IgG1 (G1m3) / kappa (Km3), produced in CHO cells; also called huVH20/huVL6) VH: EVRLMASGGGLVQPGGSLRLSCAASEFTFSNYAMSWVRQAPGKGLEWVATISRGGDYTYYPDSVKGRFTISRDNSKNTLYLQMNSLRAEDTAVYYCARRVSFITGGYAMDYWGQGTLVTVSS VL: DVVMTQSPLSLPVTLGQPASISCRSSQSIVDITGNTYLEWFQQRPGQSPRRLIYKVFNRFSGVPDRFSGSGSGTDFTLKISRVEAEDVGVYYCFQESFVPYTFGQGTKLEIKR	3.51
huB-E29-12 (antibody, human IgG1, kappa, V domains shown, Humanized B-E29 variant; human IgG1 (G1m3) / kappa (Km3), produced in CHO cells; also called huVH10/huVL1) VH: EVRLMASGGGLVQPGGSLRLSCAASEFTFSNYAMSWVRQAPGKGLEWVATISRGGDYTYYPDTVKGRFTISRDNSKNTLYLQMNSLRAEDTAVYYCARRVSMITGGAAMDYWGQGTLVTVSS VL: DVVMTQSPLSLPVTLGQPASISCRSSQSIVDITGNTYLEWYQQRPGQSPRLLIYKVFNRFSGVPDRFSGSGSGTDFTLKISRVEAEDVGVYYCFQDSFVPYTFGQGTKLEIKR	0.593
huB-E29-17 (antibody, human IgG1, kappa, V domains shown, Humanized B-E29 variant; human IgG1 (G1m3) / kappa (Km3), produced in CHO cells; also called huVH15/huVL1) VH: EVRLMASGGGLVQPGGSLRLSCAASEFTFSNYAMSWVRQAPGKGLEWVATISRGGDYTYYPDTVKGRFTISRDNSKNTLYLQMNSLRAEDTAVYYCARRVSMITGGWAMDYWGQGTLVTVSS VL: DVVMTQSPLSLPVTLGQPASISCRSSQSIVDITGNTYLEWYQQRPGQSPRLLIYKVFNRFSGVPDRFSGSGSGTDFTLKISRVEAEDVGVYYCFQDSFVPYTFGQGTKLEIKR	2.61
huB-E29-16 (antibody, human IgG1, kappa, V domains shown, Humanized B-E29 variant; human IgG1 (G1m3) / kappa (Km3), produced in CHO cells; also called huVH14/huVL1) VH: EVRLMASGGGLVQPGGSLRLSCAASEFTFSNYAMSWVRQAPGKGLEWVATISRGGDYTYYPESVKGRFTISRDNSKNTLYLQMNSLRAEDTAVYYCARRVSMITGGWAMDYWGQGTLVTVSS VL: DVVMTQSPLSLPVTLGQPASISCRSSQSIVDITGNTYLEWYQQRPGQSPRLLIYKVFNRFSGVPDRFSGSGSGTDFTLKISRVEAEDVGVYYCFQDSFVPYTFGQGTKLEIKR	2.01
